Consider eight molecules from patent US20210371487A1.

Where two headings read alike, the source gives them in different places.

Data set [1] has as its target Factor X (UniProt P00742). As to the kind of experiment: cell-based or functional assay.
Data set [2] concerns the target Factor X (UniProt P00742). Briefly: cell-based or functional assay. This is another data set of the same source.
For data set [3], the target named is Factor X (UniProt P00742).

Chain of Factor X, P00742 (P00742 whole entry, looked up): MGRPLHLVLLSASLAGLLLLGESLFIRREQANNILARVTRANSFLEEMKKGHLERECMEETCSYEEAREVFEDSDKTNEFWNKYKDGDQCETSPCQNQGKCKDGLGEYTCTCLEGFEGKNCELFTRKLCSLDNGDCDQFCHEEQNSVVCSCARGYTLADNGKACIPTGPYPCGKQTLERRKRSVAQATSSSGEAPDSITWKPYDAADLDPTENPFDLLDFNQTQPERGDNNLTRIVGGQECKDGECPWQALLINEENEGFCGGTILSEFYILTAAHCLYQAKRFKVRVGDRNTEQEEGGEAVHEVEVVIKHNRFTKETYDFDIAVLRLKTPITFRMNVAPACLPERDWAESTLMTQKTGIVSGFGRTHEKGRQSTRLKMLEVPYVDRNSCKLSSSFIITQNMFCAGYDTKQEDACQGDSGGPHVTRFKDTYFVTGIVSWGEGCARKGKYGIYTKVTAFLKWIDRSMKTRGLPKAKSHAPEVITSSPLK

“rhFIX (American Diagnostics) (from UniProt P00740 47-461) (enzyme)”: the EC50, FIX chromogenic activity (BIOPHEN kit) amounted to 21 ng/mL with Factor X [1] and 68.7 ng/mL with Factor X [2].
For the molecule FIX-CTP3 (enzyme), the Sample/plasma EC50 ratio (FIX chromogenic activity, BIOPHEN kit) with Factor X [1] stood at 2.
Same read-out and setting: in the case of FIX-CTP5 (enzyme) it was 2.73.
The molecule “FIX-CTP (from UniProt P00740 47-461) (enzyme)” came in with an EC50, FIX chromogenic activity (BIOPHEN kit) in the data set with Factor X [1] of 1640 ng/mL.
Regarding FIX-CTP-CTP, in the data set with Factor X [3], the “fold decrease in the enzymatic activity (chromogenic assay)” value was “An approximately 15-fold decrease in the enzymatic activity of the FIX-(CTP)2 harvest was observed”, the “fold decrease in the enzymatic activity versus normal human pulled plasma (chromogenic assay)” value was “a 16.5-fold decrease versus normal human pulled plasma” and the “fold decrease in the enzymatic activity vs. recombinant FIX (chromogenic assay)” value was “An approximately 7-fold decrease in the enzymatic activity of FIX-CTP-CTP was observed vs. recombinant FIX”.
Consider FIX-CTP-CTP (enzyme), for which the EC50, FIX chromogenic activity (BIOPHEN kit) is 382 ng/mL with Factor X [1] and 505 ng/mL with Factor X [2].
With FIX-CTP4 (enzyme), the Sample/plasma EC50 ratio (FIX chromogenic activity, BIOPHEN kit) with Factor X [1] was 5.35.

B1: rFVII-CTP (protein)
chain: AVFVTQEEAHGVLHRRRRANAFLEELRPGSLERECKEEQCSFEEAREIFKDAERTKLFWISYSDGDQCASSPCQNGGSCKDQLQSYICFCLPAFEGRNCETHKDDQLICVNENGGCEQYCSDHTGTKRSCRCHEGYSLLADGVSCTPTVEYPCGKIPILEKRNASKPQGRIVGGKVCPKGECPWQVLLLVNGAQLCGGTLINTIWVVSAAHCFDKIKNWRNLIAVLGEHDLSEHDGDEQSRRVAQVIIPSTYVPGTTNHDIALLRLHQPVVLTDHVVPLCLPERTFSERTLAFVRFSLVSGWGQLLDRGATALELMVLNVPRLMTQDCLQQSRKVGDSPNITEYMFCAGYSDGSKDSCKGDSGGPHATHYRGTWYLTGIVSWGQGCATVGHFGVYTRVSQYIEWLQKLMRSEPRPGVLLRAPFPSSSSKAPPPSLPSPSRLPGPSDTPILPQ
In the case of B1, the “FVII chromogenic activity (AssaySense Human FVII Chromogenic Activity Assay Kit)” value in the data set with Factor X, P00742 is “The addition of the CTP peptide at the C-terminal of the rFVII protein did not impair the FVII serine protease activity”.
